Laboratory results as given in PMC12175908.

Molecular target: Paxillin N-domain (residues 1 to 311) (human) (UniProt P49023)
Experiment: NMR titration; 100 μM 15N-PXN N-domain, unlabeled FAT added (10 to 300 μM); 2D 1H-15N HSQC, decay of amide peak intensity per LD motif, fraction bound against total FAT; effective (relative) constants for single LD motifs; 100 mM potassium phosphate, 1 mM TCEP, 0.1 mM EDTA, pH 7.0, 10°C

UniProt P49023, sequence (P49023 other isoform, or with tags, fused parts or gaps): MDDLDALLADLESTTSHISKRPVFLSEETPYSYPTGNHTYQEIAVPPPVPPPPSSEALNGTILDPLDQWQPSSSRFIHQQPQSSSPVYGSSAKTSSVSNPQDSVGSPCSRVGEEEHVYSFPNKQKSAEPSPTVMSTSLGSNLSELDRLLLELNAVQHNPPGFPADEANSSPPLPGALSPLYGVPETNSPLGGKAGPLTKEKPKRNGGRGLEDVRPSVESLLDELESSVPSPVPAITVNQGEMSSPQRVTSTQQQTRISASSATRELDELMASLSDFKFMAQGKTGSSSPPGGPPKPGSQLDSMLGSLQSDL

Substance: focal adhesion targeting (FAT) domain of focal adhesion kinase (domain or fragment)
- effective Kd of the LD1 motif: 17 µM
- effective Kd of the LD2 motif: 7000 µM
- effective Kd of the LD4 motif: 13 µM
